The text below walks through data of US20240158497A1 (published 2024).

For test [1], the target named is T1, Macaca fascicularis GP130 extracellular domain expressed with a C-terminal myc-myc-hexahistidine tag (Macaca fascicularis, UniProt P40189 23-619 (human entry)).
T1 construct: Monomeric reagent; also called mfGP130-mmH; mfGP130-MMH
T1 chain: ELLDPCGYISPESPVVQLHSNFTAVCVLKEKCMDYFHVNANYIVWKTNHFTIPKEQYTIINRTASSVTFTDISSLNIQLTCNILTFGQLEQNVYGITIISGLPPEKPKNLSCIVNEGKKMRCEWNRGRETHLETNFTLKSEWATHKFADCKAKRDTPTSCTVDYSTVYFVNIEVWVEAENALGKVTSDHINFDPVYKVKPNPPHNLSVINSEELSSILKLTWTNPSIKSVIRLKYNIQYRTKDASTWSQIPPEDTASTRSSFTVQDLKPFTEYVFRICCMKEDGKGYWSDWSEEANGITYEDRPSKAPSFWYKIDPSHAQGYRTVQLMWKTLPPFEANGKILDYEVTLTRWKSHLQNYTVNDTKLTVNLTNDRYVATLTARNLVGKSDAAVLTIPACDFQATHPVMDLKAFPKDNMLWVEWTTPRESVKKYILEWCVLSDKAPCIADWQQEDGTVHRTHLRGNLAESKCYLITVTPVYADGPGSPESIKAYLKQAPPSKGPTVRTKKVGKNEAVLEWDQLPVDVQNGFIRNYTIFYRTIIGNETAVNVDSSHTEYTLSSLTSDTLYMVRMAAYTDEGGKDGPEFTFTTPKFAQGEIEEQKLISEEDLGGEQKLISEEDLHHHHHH
Description: SPR (Biacore 4000), mAb captured on anti-human Fc, 37 C. As to the method:
(§1) Equilibrium dissociation constant (KD) for different GP130 reagents binding to purified anti-GP130 monoclonal antibodies were determined using a real-time surface plasmon resonance based Biacore 4000 biosensor. All binding studies were performed in 10 mM HEPES, 150 mM NaCl, 3 mM EDTA, and 0.05% v/v Surfactant Tween-20, pH 7.4 (HBS-ET) running buffer at 25° C. and 37° C. The Biacore sensor surface was first derivatized by amine coupling with a monoclonal mouse anti-human Fc antibody (GE, #BR-1008-39) to capture anti-GP130 monoclonal antibodies. […] Reagents tagged with “mmH” are monomeric, whereas reagents tagged with “mFc” are dimeric. Thus, for example, “hGP130-mmH” is also referred to as “monomeric human GP130,” and “hGP130-mFc” is also referred to as “dimeric human GP130.”
(§2) The association rate (k a) and dissociation rate (kd) were determined by fitting the real-time binding sensorgrams to a 1:1 binding model with mass transport limitation using Scrubber 2.0c curve-fitting software. Binding dissociation equilibrium constant (KD) and dissociative half-life (t ½) were calculated from the kinetic rates as: […]
(SPR reads the build-up and loss of mass on a sensor chip optically.)

Test [2] deals with T2, human GP130 extracellular domain expressed with a C-terminal myc-myc-hexahistidine tag (human, UniProt P40189 23-619).
T2 construct: Monomeric reagent; also called hGP130-mmH; hGP130-MMH
The test is described as above. As to the method:
as §1, §2

The target in test [3] is T1, Macaca fascicularis GP130 extracellular …. As to the kind of experiment: SPR (Biacore 4000), mAb captured on anti-human Fc, 25 C. As to the method: as §1, §2
Test [4] has as its target T3, human GP130 delta D1-D3 with C-terminal myc-myc hexahistidine tag (human, UniProt P40189 329-619).
T3 construct: used as CHO supernatant; also called human GP130 delta D1-D3-MMH; GP130 Delta D1-D3 extracellular domain
As to the kind of experiment: Luminex, antigen captured on anti-myc beads. As to the method: Aliquots of microspheres with immobilized anti-myc monoclonal antibodies, prepared as described above, were added individually to 1 mL of the each of these protein supernatants and to 500 uL of purified GP130 protein. The microspheres were gently mixed, incubated for two hours at 25° C., washed twice with 1 mL of DBPS, centrifuged to remove the supernatant and finally resuspended in 1 mL of DPBS buffer. Forty eight μL of anti-myc IgG coupled microspheres from individual reactions with full length human GP130 and with each of the human GP130 domain proteins were withdrawn and mixed together in 3.6 mL of PBS+20 mg/mL BSA+0.05% sodium azide (blocking buffer).
From this mixed pool, 75 μL of microspheres were plated per well on a 96 well filter plate (Millipore, Cat. No: MSBVN1250) and mixed with 25 μL of individual anti-human GP130 monoclonal antibodies (0.5 or 5 μg/mL), incubated for two hours at 25° C. and then washed twice with 200 μL of DPBS with 0.05% Tween 20 (washing buffer). To detect and quantify the amounts of bound anti-GP130 antibody levels to individual microspheres, either 100 μL of 2.5 μg/mL R-Phycoerythrin conjugated goat F(ab′)2 anti-human kappa (Southern Biotech, Cat #2063-09) in blocking buffer, was added and incubated for 30 minutes at 25° C. After 30 minutes, the samples were washed twice with 200 μL of washing buffer and resuspended in 150 μL of wash buffer. The Median Fluorescence intensity (MFI) of the microspheres was measured in a Luminex Analyzer.

B1: MAb16665 (antibody, V domains shown)
VH: QVQLVESGGGVVQPGRSLRLACAASGFTFRSYGMHWVRQAPGKGLEWVAVIWYDGSNKYYTDSVKGRFTISRDNSKNTLYLQMNSLRAEDTAMYYCAIDKWATVTTYLFDYWGQGTLVTVSS
VL: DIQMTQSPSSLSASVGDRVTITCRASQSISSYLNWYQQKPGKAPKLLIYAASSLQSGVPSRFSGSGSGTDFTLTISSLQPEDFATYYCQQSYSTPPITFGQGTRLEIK
Consider B1, for which, in test [1], the “100 nM Ag Bound” value came out at 14 RU, the Kd came to 0.205 µM, the off-rate (koff) is 0.101 s⁻¹ and the association rate constant (kon) came out at 492000 M⁻¹ s⁻¹. Also, the t½ in test [1] came to 6 s. In test [2], the “100 nM Ag Bound” value is 19 RU, the Kd worked out at 0.164 µM, the off-rate (koff) stood at 0.0693 s⁻¹ and the kon was found to be 423000 M⁻¹ s⁻¹. In test [2], this molecule displayed a t½ of 12 s. In test [3], the “100 nM Ag Bound” value turned out to be 16 RU, the Kd is 0.233 µM, the off-rate (koff) came to 0.0505 s⁻¹ and the kon was 217000 M⁻¹ s⁻¹. The molecule also gave a t½ in test [3] of 12 s.

B2: MAb16680 (antibody, V domains shown)
VH: QVQLQQSGPGQMKSSQTLTLTCAISGDSVSSNSAIWYWIRQSPSRGLEWLGRTKFRSKWYNDFALSMKSRITINPDTSKNQFSLHLNSVTPEDTAVYYCARYKWELYFDYWGQGTLVTVSS
VL: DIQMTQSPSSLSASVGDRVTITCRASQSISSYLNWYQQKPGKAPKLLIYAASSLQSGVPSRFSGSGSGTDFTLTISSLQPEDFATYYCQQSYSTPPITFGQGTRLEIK
notes: hIgG4 isotype control used
For B2, in test [4], the “Luminex MFI signal” value was 18700 MFI.

B3: MAb16669 (antibody, V domains shown)
VH: EVQLVESGGGLVQPGGSLRLSCAASGFTFSSYAMNWVRQAPGKGLEWVSAISGSGDSTYYTDSVKGRFTISRDNSKNTLYLQMNTLRAEDTAVYYCAKEEIVMLVGATPGWFDPWGQGTLVTVSS
VL: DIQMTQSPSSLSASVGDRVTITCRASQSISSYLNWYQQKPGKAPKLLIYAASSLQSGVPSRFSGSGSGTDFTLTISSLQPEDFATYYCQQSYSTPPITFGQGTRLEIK
Take B3: the “100 nM Ag Bound” value in test [1] came out at 8 RU. For the same molecule, in test [2], the “100 nM Ag Bound” value was found to be 25 RU, binding was put at a Kd of 0.0193 µM, the off-rate constant (koff) was 0.00106 s⁻¹ and the kon turned out to be 55100 M⁻¹ s⁻¹. In test [2], the t½ was 660 s. Besides, in test [3], the “100 nM Ag Bound” value was 3 RU and the binding result is on record as “no binding (tested: 100 nM)”.

B4: MAb16683 (antibody, V domains shown)
VH: QVQLVESGGGLVKPGGSLRLSCAASGFTFSDYYMTWIRQTPGKGLDWVSYISSSGTNKYNADSVKGRFTISRDNAKNSLYLQMNSLRAEDTAVYYCVRDPPWGMDVWGQGTTVTVSS
VL: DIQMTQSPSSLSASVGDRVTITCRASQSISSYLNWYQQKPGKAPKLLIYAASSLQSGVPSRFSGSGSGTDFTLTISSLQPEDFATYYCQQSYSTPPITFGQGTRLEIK
Turning to B4, in test [1], the “100 nM Ag Bound” value turned out to be 43 RU, binding was characterised by a dissociation constant (Kd) of 0.125 µM, the off-rate constant (koff) was determined as 0.0121 s⁻¹ and the kon was found to be 96500 M⁻¹ s⁻¹. In test [1], the t½ turned out to be 60 s. For the same molecule, in test [2], the “100 nM Ag Bound” value came out at 38 RU; the affinity, expressed as Kd, was 0.117 µM; the koff was determined as 0.0125 s⁻¹; the on-rate constant (kon) came to 107000 M⁻¹ s⁻¹. The same molecule returned a t½ in test [2] of 54 s. In addition, in test [3], the “100 nM Ag Bound” value amounted to 59 RU, the Kd turned out to be 0.0374 µM, the koff came out at 0.00246 s⁻¹ and the kon stood at 65700 M⁻¹ s⁻¹. The molecule further returned a t½ in test [3] of 300 s.

B5: MAb16673 (antibody, V domains shown)
VH: EVQLVQSGAEVKKPGESLKISCKGSGYSFTSYWIDWVRQMPGKGLEWMGIIYPDDSDTRYSPSFQGQVTMSVDKSISTAYLQWSSLKASDTAIYYCARHERGIVEAGTDYYYYYGMDVWGQGTTVTVSS
VL: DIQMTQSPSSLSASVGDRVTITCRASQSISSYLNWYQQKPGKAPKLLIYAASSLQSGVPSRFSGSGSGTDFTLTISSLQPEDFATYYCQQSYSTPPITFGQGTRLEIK
Regarding B5, in test [1], the “100 nM Ag Bound” value worked out at 64 RU; the affinity, expressed as Kd, was 0.0341 µM; the koff amounted to 0.0211 s⁻¹; the on-rate (kon) was 617000 M⁻¹ s⁻¹. Also, in test [1], the t½ came to 30 s. Further, in test [2], the “100 nM Ag Bound” value turned out to be 40 RU, binding was put at a Kd of 0.0754 µM, the off-rate constant (koff) is 0.0404 s⁻¹ and the on-rate (kon) was found to be 536000 M⁻¹ s⁻¹. The t½ in test [2] was 18 s. In test [3], the “100 nM Ag Bound” value came to 86 RU, the equilibrium dissociation constant (Kd) was 0.0222 µM, the koff was 0.00693 s⁻¹ and the kon is 312000 M⁻¹ s⁻¹. In test [3], the t½ came to 102 s.

B6: MAb16666 (antibody, V domains shown)
VH: EVQLVESGGGLVQSGGSLRLSCAASGFTFSRYEMNWVRQAPGKGLEWVAYISNTGTTRDYSDSVKGRFTISRDNAKNSLYLQMSSLRVEDTAVYYCVREKFSGTSDWFDPWGQGTLVTVSS
VL: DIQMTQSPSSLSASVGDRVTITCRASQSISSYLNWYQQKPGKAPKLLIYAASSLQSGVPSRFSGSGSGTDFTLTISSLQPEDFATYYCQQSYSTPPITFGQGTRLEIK
As for B6, in test [1], the “100 nM Ag Bound” value turned out to be 90 RU, the Kd was determined as 0.0247 µM, the off-rate (koff) turned out to be 0.0131 s⁻¹ and the kon turned out to be 528000 M⁻¹ s⁻¹. This molecule had a t½ in test [1] of 54 s. In addition, in test [2], the “100 nM Ag Bound” value was 104 RU, binding was put at a Kd of 0.0171 µM, the dissociation rate constant (koff) is 0.0101 s⁻¹ and the kon is 588000 M⁻¹ s⁻¹. Further, the t½ in test [2] amounted to 66 s. In test [3], the “100 nM Ag Bound” value came out at 123 RU; the affinity, expressed as Kd, was 0.0183 µM; the dissociation rate constant (koff) amounted to 0.0053 s⁻¹; the kon is 290000 M⁻¹ s⁻¹. Further, the t½ in test [3] came to 132 s.

B7: MAb16682 (antibody, V domains shown)
VH: EVQLVESGGGLVQPGGSLRLSCAASGFTFSTYWMNWVRQAPGKGLEWVANIKEDGSEKYYVDSVKGRFTISRDNAKNSLYLQMNSLRAEDTAVYYCAREGFGVVTYIWGQGTMVTVSS
VL: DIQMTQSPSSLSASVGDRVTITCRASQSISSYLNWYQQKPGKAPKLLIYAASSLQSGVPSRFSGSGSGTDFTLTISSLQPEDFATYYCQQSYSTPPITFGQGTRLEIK
As to B7, in test [1], the “100 nM Ag Bound” value amounted to 15 RU, the Kd is 0.124 µM, the koff is 0.0386 s⁻¹ and the on-rate (kon) worked out at 311000 M⁻¹ s⁻¹. In test [1], this molecule returned a t½ of 18 s. In test [2], the “100 nM Ag Bound” value stood at 16 RU, the Kd was found to be 0.113 µM, the koff was found to be 0.0341 s⁻¹ and the kon was 301000 M⁻¹ s⁻¹. Moreover, the t½ in test [2] turned out to be 18 s. Also, in test [3], the “100 nM Ag Bound” value worked out at 20 RU, the equilibrium dissociation constant (Kd) stood at 0.132 µM, the koff stood at 0.0168 s⁻¹ and the kon stood at 128000 M⁻¹ s⁻¹. This molecule came in with a t½ in test [3] of 42 s.

B8: MAb16676 (antibody, V domains shown)
VH: QVQLVQSGAEVMKPGASVKVSCRASGYTFSSYDINWVRQAPGQGLEWMGWISTATGNTNYPQKVQGRVTMTTDTSTNTAYMELRSLRSDDTAVYYCTREGNSKGWLDPWGQGTLVTVSS
VL: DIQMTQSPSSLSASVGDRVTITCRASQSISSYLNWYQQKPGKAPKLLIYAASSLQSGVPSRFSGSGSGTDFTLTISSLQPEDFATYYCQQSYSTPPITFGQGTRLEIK
For B8, in test [1], the “100 nM Ag Bound” value turned out to be 48 RU; the affinity, expressed as Kd, was 0.00712 µM; the koff was determined as 0.00243 s⁻¹; the kon worked out at 341000 M⁻¹ s⁻¹. Besides, the t½ in test [1] came out at 300 s. In addition, in test [2], the “100 nM Ag Bound” value was 52 RU; the affinity, expressed as Kd, was 0.00601 µM; the off-rate (koff) was determined as 0.00236 s⁻¹; the kon turned out to be 393000 M⁻¹ s⁻¹. The t½ in test [2] is 300 s. In test [3], the “100 nM Ag Bound” value worked out at 49 RU, binding was put at a Kd of 0.0022 µM, the koff was determined as 0.000597 s⁻¹ and the kon amounted to 272000 M⁻¹ s⁻¹. The same molecule registered a t½ in test [3] of 1140 s.

For orientation: Kd means the constant that tells how readily two partners part at equilibrium. The koff is a measure of how fast the partners let go of each other. In general, kon refers to the second-order rate constant of association. Low readings indicate slower complex formation, high ones faster complex formation. As usually defined, the t½ is the time in which the quantity being followed falls by half. Low values mean fast loss, high ones slow loss.
